The text below walks through data of publication PMC5727127, “H3K14ac is linked to methylation of H3K9 by the triple Tudor domain of SETDB1” (Nature Communications, 2017).

Assay [1] has as its target 3TD of SETDB1, W358A mutant, as used in ITC and crystals (UniProt Q15047). In words: ITC; 25 °C, VP-ITC, 20 mM Tris/HCl pH 7.0, 150 mM NaCl; protein 50 to 100 μM, ligand 1–2 mM; one-site binding model. A general note: In ITC the heat of successive injections is recorded.
The target of assay [2] is H3K9me3/K14ac peptide in solution (ITC; crystals). In words: ITC. The conditions noted are these: read off a plot.
Assay [3] has as its target H3K9me2/K14ac peptide in solution (ITC; crystal with W358A), limits not stated. In words: ITC. As to conditions: read off a plot.
Assay [4] deals with H3K9me1/K14ac peptide in solution (ITC). In words: ITC. The conditions noted are these: read off a plot.

Substance “H3K9me2/K14ac peptide in solution (ITC; crystal with W358A), limits not stated” showed a fold reduction of affinity against wildtype 3TD in assay [1] of 18 fold.

In assay [1], “H3K9me3/K14ac peptide in solution (ITC; crystals)” had a fold reduction of binding against wildtype 3TD of 2 fold.

“triple Tudor domain (3TD) of SETDB1, wildtype, as used in solution (ITC, NMR, crystals) (from UniProt Q15047) Y268A”: the ratio to parent turned out to be 0.18 in assay [2], 1.1 in assay [3] and 1.5 in assay [4].
